Earlier results, collected in article PMC4495883.

Biological target: insulin-degrading enzyme (112 kDa protein) (Rattus norvegicus) (UniProt P35559)
Experiment: cross-linking

UniProt P35559, sequence (P35559 whole entry): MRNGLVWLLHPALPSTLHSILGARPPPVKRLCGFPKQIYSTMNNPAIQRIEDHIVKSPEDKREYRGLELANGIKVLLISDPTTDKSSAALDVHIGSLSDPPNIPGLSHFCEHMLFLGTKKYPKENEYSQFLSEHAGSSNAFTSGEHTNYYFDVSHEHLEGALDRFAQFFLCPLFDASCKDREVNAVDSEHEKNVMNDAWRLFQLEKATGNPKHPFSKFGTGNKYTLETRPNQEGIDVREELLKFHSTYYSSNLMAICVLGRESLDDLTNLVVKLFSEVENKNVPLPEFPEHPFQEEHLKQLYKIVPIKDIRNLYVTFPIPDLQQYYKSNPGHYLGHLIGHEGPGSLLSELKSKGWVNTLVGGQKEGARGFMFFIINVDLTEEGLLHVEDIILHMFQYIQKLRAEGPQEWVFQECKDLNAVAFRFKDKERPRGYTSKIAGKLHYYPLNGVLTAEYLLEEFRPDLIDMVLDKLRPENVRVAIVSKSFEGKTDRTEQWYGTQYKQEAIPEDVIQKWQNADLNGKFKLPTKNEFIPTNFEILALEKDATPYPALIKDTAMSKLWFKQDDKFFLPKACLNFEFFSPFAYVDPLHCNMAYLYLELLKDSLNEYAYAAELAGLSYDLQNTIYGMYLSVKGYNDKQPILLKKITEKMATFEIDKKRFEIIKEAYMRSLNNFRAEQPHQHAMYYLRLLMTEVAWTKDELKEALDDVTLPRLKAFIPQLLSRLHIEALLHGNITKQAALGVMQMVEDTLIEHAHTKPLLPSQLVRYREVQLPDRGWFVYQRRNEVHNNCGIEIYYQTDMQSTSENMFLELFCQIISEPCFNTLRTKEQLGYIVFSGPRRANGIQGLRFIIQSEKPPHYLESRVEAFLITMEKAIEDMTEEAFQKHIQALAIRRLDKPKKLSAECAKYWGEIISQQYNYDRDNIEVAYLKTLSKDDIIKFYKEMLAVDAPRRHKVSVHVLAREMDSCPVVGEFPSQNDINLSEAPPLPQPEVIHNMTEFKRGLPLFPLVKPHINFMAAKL

- Kd: 60 nM
Substance: ANP (from UniProt P01161)
